Consider 4 proteins from patent publication US11549123B2, “Plant EPSP synthases and methods of use” (PIONEER HI-BRED INTERNATIONAL, INC., priority 2015, dated 2023).

What all share (conditions): other: PEP varied; pH 7.0
Substrate in data set [1]: C=C(OP(=O)(O)O)C(=O)O
As to the kind of experiment: EPSPS substrate saturation kinetics, 868-H6. The data set is classed as biochemical, Zea mays. How it is done:
(§1) EPSPS activity was determined by quantifying the phosphate generated from the EPSPS reaction. Release of inorganic phosphate was coupled to reaction with 2-amino-6-mercapto-7-methylpurine ribonucleoside, catalyzed by purine-nucleoside phosphorylase (M R Webb, Proc. Natl. Acad. Sci. 89:4884-4887, 1992). The absorbance change that occurs was monitored at 360 nm, where the extinction is 11,200 M^−1 cm^−1, with a Spectramax plate reader (Molecular Devices). To determine kinetic parameters, the varied substrate was present at seven concentrations (the eighth being the blank, containing no substrate) ranging from 4 to 400 uM and the unvaried substrate present at saturation. Six microliters of 50-fold concentrated stock solutions of the varied substrate were placed in the wells of the 96-well assay plate and reactions were started with the addition of a mixture containing 25 mM Hepes, pH 7, 100 mM KCl, 0.3 mM 2-amino-6-mercapto-7-methylpurine ribonucleosde, 1 uM (1 unit/ml) purine-nucleoside phosphorylase (Sigma N8264) and 200 uM of the non-varied substrate. Reactions were monitored with a Spectramax plate reader. The Michaelis-Menten kinetics protocol of the Spectramax software was customized for the substrate concentrations used. The software returns values of KM and Vmax using the Lineweaver-Burke transformation of the Michaelis-Menten equation. To determine kcat, Vmax (uM/min) was divided by the enzyme concentration (uM). […] KI was then calculated from the following form of the Michaelis-Menten equation for competitive inhibition: KI=KM[I]/(KM app−KM) KM approximates the dissociation constant of the enzyme-substrate complex while kcat is the rate of conversion of substrate to product when the substrate concentration is saturating. kcat/KM is a widely accepted parameter for catalytic efficiency when substrate concentration is low (˜KM). […] The parameter kcat/KM×KI is used to quantify both catalytic efficiency and insensitivity and thus the overall fitness of the enzyme.
(§2) From the functional diversity identified for each, combinatorial libraries were constructed and screened. […]

Substrate in data set [2]: C=C(OP(=O)(O)O)C(=O)O
As to the kind of experiment: EPSPS substrate saturation kinetics, 771-C2. The data set is classed as biochemical, Zea mays. How it is done:
as §1, §2

Substrate in data set [3]: C=C(OP(=O)(O)O)C(=O)O
As to the kind of experiment: EPSPS substrate saturation kinetics, sorghum H6. The data set is classed as biochemical, Sorghum halepense. As to the method: as §1, with “Six microliters of 50-fold concentrated stock solutions of the varied substrate were placed in the wells of the 96-well assay plate and reactions were started with the addition of a mixture containing 25 mM Hepes, pH 7, 100 mM KCl, 0.3 mM 2-amino-6-mercapto-7-methylpurine ribonucleosde, 1 uM (1 unit/ml) purine-nucleoside phosphorylase (Sigma N8264) and 200 uM of the non-varied substrate.” left out, “reader.” for “reader. The Michaelis-Menten kinetics protocol of the Spectramax software was customized for the substrate concentrations used. The software returns values of KM and Vmax using the Lineweaver-Burke transformation of the Michaelis-Menten equation. To determine kcat, Vmax (uM/min) was divided by the enzyme concentration (uM).”
Native EPSPS amino acid sequences of rice (Oryza sativa) (SEQ ID NO:7), sorghum (Sorghum halepense) (SEQ ID NO:8), and sunflower (Helianthus annus) (SEQ ID NO:9) including the chloroplast transit peptide sequences were assembled and analyzed for mapping the corresponding amino acid mutations from the maize 868-H6. […]
ChloroP Prediction Server (Emanuelsson, O. et al. 1999. Protein Sci. 8(5):978-84) was used to approximate the amino terminus of the mature EPSPS proteins. […] The synthetic genes were cloned into a plasmid vector and expressed, purified and analyzed as described in Example 1.

Substrate in data set [4]: C=C(OP(=O)(O)O)C(=O)O
As to the kind of experiment: EPSPS substrate saturation kinetics, 123-C1. In kind it is biochemical, Zea mays. How it is done: as §1, with “enzyme. […]” for “enzyme.”

B1: Zea mays EPSPS variant 868-H6 (A2R, A4W, A72Q, K84R, L98C, G102A, I208L, T279A, E302S, T361S, E391G, D402G, A416G, V438R, T441Q), SEQ ID NO:5 (Zea mays; … (protein)
chain: MRGWEEIVLQPIKEISGTVKLPGSKSLSNRILLLAALSEGTTVVDNLLNSEDVHYMLGALRTLGLSVEADKQAKRAVVVGCGGRFPVEDAKEEVQLFCGNAATAMRPLTAAVTAAGGNATYVLDGVPRMRERPIGDLVVGLKQLGADVDCFLGTDCPPVRVNGIGGLPGGKVKLSGSISSQYLSALLMAAPLALGDVEIEIIDKLISLPYVEMTLRLMERFGVKAEHSDSWDRFYIKGGQKYKSPKNAYVEGDASSASYFLAGAAITGGTVTVEGCGTASLQGDVKFAEVLEMMGAKVTWTSTSVTVTGPPREPFGRKHLKAIDVNMNKMPDVAMTLAVVALFADGPTAIRDVASWRVKESERMVAIRTELTKLGASVEEGPDYCIITPPGKLNVTAIDTYGDHRMAMAFSLAACGEVPVTIRDPGCTRKTFPDYFDRLSQFVKN
In the case of B1, in data set [1], the Km was found to be 24.0 µM, the kcat worked out at 6.43 s⁻¹ and the kcat/Km came to 268000 M⁻¹ s⁻¹.

B2: Zea mays EPSPS variant 771-C2 (A4W, H54M, L98C, G102A, K173R, I208L, K243E, E302S, T361S, E391P, D402G, A416G, V438R, S440R, T441Q, F442V), SEQ ID NO:4 (Zea … (protein)
chain: MAGWEEIVLQPIKEISGTVKLPGSKSLSNRILLLAALSEGTTVVDNLLNSEDVMYMLGALRTLGLSVEADKAAKRAVVVGCGGKFPVEDAKEEVQLFCGNAATAMRPLTAAVTAAGGNATYVLDGVPRMRERPIGDLVVGLKQLGADVDCFLGTDCPPVRVNGIGGLPGGKVRLSGSISSQYLSALLMAAPLALGDVEIEIIDKLISLPYVEMTLRLMERFGVKAEHSDSWDRFYIKGGQKYESPKNAYVEGDASSASYFLAGAAITGGTVTVEGCGTTSLQGDVKFAEVLEMMGAKVTWTSTSVTVTGPPREPFGRKHLKAIDVNMNKMPDVAMTLAVVALFADGPTAIRDVASWRVKESERMVAIRTELTKLGASVEEGPDYCIITPPPKLNVTAIDTYGDHRMAMAFSLAACGEVPVTIRDPGCTRKTFPDYFDRLRQVVKN
As to B2, in data set [2], the Michaelis constant (Km) is 21.0 µM, the kcat turned out to be 5.8 s⁻¹ and the kcat/Km came to 275000 M⁻¹ s⁻¹.

B3: Sorghum halepense EPSPS with 868-H6 mutations, SEQ ID NO:12 (Sorghum halepense; … (protein)
chain: ARGWEEIVLQPIKEISGTVKLPGSKSLSNRILLLAALSEGTTVVDNLLNSEDVHYMLGALNTLGLSVEADKQAKRAVVVGCGGRFPVEDAKEEVQLFCGNAATAMRPLTAAVTAAGGNATYVLDGVPRMRERPIGDLVVGLKQLGADVDCFLGTDCPPVRINGIGGLPGGKVKLSGSISSQYLSALLMAAPLALGDVEIEIIDKLISLPYVEMTLRLMERFGVKAEHSDSWDRFYIKGGQKYKSPKNAYVEGDASSASYFLAGAAITGGTVTVEGCGTASLQGDVKFAEVLEMMGAKVTWTSTSVTVTGPPRQPFGRKHLKAIDVNMNKMPDVAMTLAVVALFADGPTAIRDVASWRVKESERMVAIRTELTKLGASVEEGPDYCIITPPGKLNVTAIDTYGDHRMAMAFSLAACGEVPVTIRDPGCTRKTFPDYFDRLSQFVKN
In the case of B3, in data set [3], the Km came to 30.6 µM, the kcat was 5.28 s⁻¹ and the specificity constant (kcat/Km) is 167000 M⁻¹ s⁻¹.

B4: Zea mays EPSPS variant 123-C1 (A2R, A4W, K84R, L98C, G102A, I208L, K243E, E391P, D402G), SEQ ID NO:6 (Zea mays; A1R/A3W/D401G/E390P/G101A/I207L/K242E/K83R/L97C) (protein)
chain: MRGWEEIVLQPIKEISGTVKLPGSKSLSNRILLLAALSEGTTVVDNLLNSEDVHYMLGALRTLGLSVEADKAAKRAVVVGCGGRFPVEDAKEEVQLFCGNAATAMRPLTAAVTAAGGNATYVLDGVPRMRERPIGDLVVGLKQLGADVDCFLGTDCPPVRVNGIGGLPGGKVKLSGSISSQYLSALLMAAPLALGDVEIEIIDKLISLPYVEMTLRLMERFGVKAEHSDSWDRFYIKGGQKYESPKNAYVEGDASSASYFLAGAAITGGTVTVEGCGTTSLQGDVKFAEVLEMMGAKVTWTETSVTVTGPPREPFGRKHLKAIDVNMNKMPDVAMTLAVVALFADGPTAIRDVASWRVKETERMVAIRTELTKLGASVEEGPDYCIITPPPKLNVTAIDTYGDHRMAMAFSLAACAEVPVTIRDPGCTRKTFPDYFDVLSTFVKN
For B4, in data set [4], the Km amounted to 24.2 µM, the kcat was 7.3 s⁻¹ and the kcat/Km was found to be 302000 M⁻¹ s⁻¹.
